In US8501695B2, “Tissue kallikrein for the treatment of diseases associated with amyloid protein” (DiaMedica, Inc., priority 2007, dated 2013):

Legend:
[1] = tested on: amyloid fibrils (fAβ) from synthetic human amyloid protein Aβ1-42 or Aβ1-40; assay: In vitro amyloid protein cleavage assay, digestion of fibrils, mass spectroscopy; type: biochemical; conditions: 37° C., 4 h to 5 days, mass spectra FIG. 1
Method: Synthetic human amyloid protein Aβ1-42 or Aβ1-40 was dissolved in dimethyl sulfoxide (DMSO) (Sigma, St. Louis, Mo.) to a concentration of 5 mM, and is then diluted in MilliQ® water to a final concentration of […] immediately prior to use. To prepare amyloid fibrils (fAβ) 5 mM Aβ1-42 or Aβ1-40 in DMSO was diluted in 10 mM HCl to 100 μM (for Aβ1-42) or […] (for Aβ1-40), vortexed for 30 s, and was incubated at 37° C. for 5 days. KLK1 (Sigma) was used for digestion reactions in the following buffers: ECE, 0.1 M MES, 0.1 M NaCl (pH 6.0); IDE, 50 mM Tris, 1 M NaCl (pH 7.5); NEP, 0.1 M MES (pH 6.5); and MMP-9, 50 mM Tris-HCl (pH 7.5), 10 mM CaCl2, 150 mM NaCl, 0.05% Brij 35. It was incubated at 37° C. for 4 h to 5 days. After digestion, the reaction was analyzed by mass spectroscopy. The samples were added to 50 mM glycine (pH 9.2)/2 mM thioflavin T (ThT) (Sigma) at a final volume of up to 2 ml. […] However, in panel C, there is a clear peak at about 2423 M/Z (mass to charge ration), which is an indication of cleavage.

[2] = tested on: rat mixed cortical cultures (RMCC); assay: Aβ1-42 toxicity in rat mixed cortical cultures, LDH measurement; type: cell-based
Method: Whether pre-treatment with tissue kallikrein protects rat mixed cortical cultures against exposure to human amyloid beta peptide (Aβ1-42) was investigated. Cell death was analyzed by LDH-release, an indication of necrosis, and cell viability was also analyzed by neuronal cell count. First (Study Arm A), tissue kallikrein was added to the cells only prior to the Aβ1-42 insult (at −24 h and at −30 min). Whereas in the second part (Study Arm B), tissue kallikrein was added to the cells prior to (−30 min) and also at +24 h after the Aβ1-42 insult. At the +24 h time point, cell culture media were not changed (tissue kallikrein or corresponding amount of vehicle was added to the wells), whereas at −24 h and −30 min time point cell culture media were changed.
[…] Cell Culture. Mixed cortical cultures were prepared from E18 Wistar rat embryos (National Animal Center, Kuopio, Finland). The cortices were dissected out, and the tissue cut to small pieces. The cells were separated by 15-min incubation with DNase and papain. The cells were collected by centrifugation (1500 rpm, 5 min). The tissue was triturated with a pipette and the cells were plated on poly-L-lysine-coated 48-well plates, 300,000 cells/cm^2, in MEM (2 g/L glucose) supplemented with 2 mM glutamine, 0.1 μg/ml gentamicin, 10% heat-inactivated fetal bovine serum (FBS-HI) and 10% heat-inactivated horse serum (HS-HI). After 3-4 h, the media were changed to MEM (2 g/L glucose) supplemented with 2 mM glutamine, 0.1 μg/ml gentamicin, 5% HS-HI. After three days in vitro, media containing MEM (2 g/L glucose) supplemented with glutamine, gentamicin, and 5% of both sera were changed to the cells. On day 6 in vitro, the unwanted cell division was inhibited by adding cytosine arabinoside (10 μM final concentration) for 24 h. The cultures were refed with MEM (2 g/L glucose) supplemented with glutamine, gentamicin, and 5% HS-HI before experiments.
Aβ1-42 Exposure. Tissue kallikrein (SEQ ID NO:1) was dissolved and further diluted in MEM supplemented with glucose, glutamine, gentamicin, and 5% HS-HI. As a control for total neuronal death, 300 μM N-methyl-D-aspartic acid (NMDA) for 48 h was used, and 10 μM Aβ1-42 for 48 h was used to induce approximately 30-50% cell death. Wells treated with media only served as 0-control. Tissue kallikrein or vehicle was pipetted to the cells −24 h and −30 min before adding 10 μM Aβ1-42 (final concentration). Tissue kallikrein or vehicle was again pipetted to the cells at +24 h after exposure.
LDH Measurement. After 48 h, the culture media of all wells were collected, and possible cell debris was removed by centrifugation (13,000 rpm for 3 min). A 100 μl aliquot was pipetted into a microtiter plate as duplicates, and equal amount of LDH reagent was pipetted to the wells. The absorbance at 340 nm was measured immediately using a 3 min kinetic measurement protocol in Multiskan ELISA reader (Labsystems, Finland). The change in absorbance/min was determined, which was directly proportional to the released LDH. The remaining supernatant (50 μl) was snap-frozen in dry ice for storage.
Data Analysis. The number of wells per compound concentration used was 6 (n=6). Five concentrations of Tissue kallikrein were studied (0.001, 0.01, 0.1, 1, 10 μg/ml) in both study arms. Statistical analysis was performed using StatsDirect statistical software. The values were analyzed by one-way ANOVA followed by Dunnet's test (comparison to the vehicle-treated group). Results are presented as mean±standard deviation (SD) and differences are considered to be statistically significant at the P<0.05 level.

[3] = target: T1, Amyloid beta1-42 (hAPβ42 peptide) (Homo sapiens, UniProt P05067); assay: Direct cleavage of amyloid beta, β-Amyloid1-42 ELISA; type: biochemical
T1 construct: Amyloid beta1-42 standard (from β-Amyloid1-42 ELISA, Human kit, Sigma BE0200); purchased Sigma BE0200
T1 sequence (P05067 672-713 limits assumed): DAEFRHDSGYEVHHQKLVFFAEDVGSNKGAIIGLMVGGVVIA
Method: Amyloid beta1-42 standard (from β-Amyloid1-42 ELISA, Human kit, Sigma BE0200) was reconstituted into 1.0 μg/mL as per kit instructions. A stock solution of tissue kallikrein (SEQ ID: 1) and approximately 0.5 molar equivalents of Soybean Trypsin Inhibitor (Sigma, T6522) was prepared in PBS and serially diluted in triplicate with a fixed concentration of hAPβ42 peptide at 500 pg/mL. Solutions were incubated for 3 and 18 hours respectively after which time additional protease inhibitors were added (1/100 dilution of protease inhibitor cocktail solution, Sigma P8340). As per kit instructions, 50 μL of the above samples were added and the ELISA plate incubated overnight at 4° C. The remaining steps of the ELISA plate development were followed as per kit instructions and then read using a multiwell ELISA plate reader at 450 nm. Percent cleavage was determined by: 100−[(Ave KLK1−Ave Blank)/(Ave Control−Ave Blank)×100]=% Cleavage Results

Sequence of amyloid fibrils (fAβ) from synthetic human amyloid protein Aβ1-42 or Aβ1-40 (P05067 672-711 limits assumed): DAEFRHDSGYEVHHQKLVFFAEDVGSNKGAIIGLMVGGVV

B1: tissue kallikrein: serine protease that cleaves kininogen into kallidin; polypeptide SEQ ID NO:1 (Sus scrofa kallikrein 1), KLK1 from Sigma (protein, listed as Sus scrofa)
chain: MWSLVMRLALSLAGTGAAPPIQSRIIGGRECEKDSHPWQVAIYHYSSFQCGGVLVDPKWVLTAAHCKNDNYQVWLGRHNLFENEVTAQFFGVTADFPHPGFNLSLLKNHTKADGKDYSHDLMLLRLQSPAKITDAVKVLELPTQEPELGSTCQASGWGSIEPGPDDFEFPDEIQCVELTLLQNTFCADAHPDKVTESMLCAGYLPGGKDTCMGDSGGPLICNGMWQGITSWGHTPCGSANKPSIYTKLIFYLDWINDTITENP
modifications: 125I label in one form
cleavage of amyloid fibrils [1]: cleaves amyloid fibrils | LDH release following Aβ1-42 insult ([2]; 10 μg/ml, Study Arms A, B and C (all three treatment arms), FIG. 7): statistically significant reduction of LDH release | LDH release following Aβ1-42 insult ([2]; Study Arm A (-24 h and -30 min), 10 μg/ml, 10 μM Aβ1-42): significantly reduced LDH release | LDH release following Aβ1-42 insult ([2]; Study Arm A (-24 h and -30 min), 0.001, 0.01, 0.1 and 1.0 μg/ml, 10 μM Aβ1-42): did not alter LDH release | LDH release following Aβ1-42 insult ([2]; Study Arm B (-30 min and +24 h), 1.0 μg/ml): reduced LDH release | LDH release following Aβ1-42 insult ([2]; Study Arm B (-30 min and +24 h), 10 μg/ml): statistically significant reduction of LDH release | LDH release following Aβ1-42 insult ([2]; Study Arm B (-30 min and +24 h), 0.001, 0.01 and 0.1 μg/ml, 10 μM Aβ1-42): did not alter LDH release | Percent Cleavage of Amyloid Beta ([3]; KLK1 1 pg/mL, 3 hrs): 0% | Percent Cleavage of Amyloid Beta ([3]; KLK1 1 pg/mL, 18 hrs): 0% | Percent Cleavage of Amyloid Beta ([3]; KLK1 10 pg/mL, 3 hrs): 0% | Percent Cleavage of Amyloid Beta ([3]; KLK1 10 pg/mL, 18 hrs): 15% | Percent Cleavage of Amyloid Beta ([3]; KLK1 100 pg/mL, 3 hrs): 0% | Percent Cleavage of Amyloid Beta ([3]; KLK1 100 pg/mL, 18 hrs): 19.5% | Percent Cleavage of Amyloid Beta ([3]; KLK1 1 ng/mL, 3 hrs): 19.6% | Percent Cleavage of Amyloid Beta ([3]; KLK1 1 ng/mL, 18 hrs): 50% | Percent Cleavage of Amyloid Beta ([3]; KLK1 10 ng/mL, 3 hrs): 36.6% | Percent Cleavage of Amyloid Beta ([3]; KLK1 10 ng/mL, 18 hrs): 88.4% | Percent Cleavage of Amyloid Beta ([3]; KLK1 100 ng/mL, 3 hrs): 71.7% | Percent Cleavage of Amyloid Beta ([3]; KLK1 100 ng/mL, 18 hrs): 99.8% | Percent Cleavage of Amyloid Beta ([3]; KLK1 1 μg/mL, 3 hrs): 92.1% | Percent Cleavage of Amyloid Beta ([3]; KLK1 1 μg/mL, 18 hrs): 100%
